According to paper PMC11091212 (2024):

T1: Microfibril-associated glycoprotein 4 (human, UniProt P55083 22-255, intermolecular disulphide bond between C34 of two monomers; N-glycosylated at N87 and N137 (cryo-EM density))
T1 chain: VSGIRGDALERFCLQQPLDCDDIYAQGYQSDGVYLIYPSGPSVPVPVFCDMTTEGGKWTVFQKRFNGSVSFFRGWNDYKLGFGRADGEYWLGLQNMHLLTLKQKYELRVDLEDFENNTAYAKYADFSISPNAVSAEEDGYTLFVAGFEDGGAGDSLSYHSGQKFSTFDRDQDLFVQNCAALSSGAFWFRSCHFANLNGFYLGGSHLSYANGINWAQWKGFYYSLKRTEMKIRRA

B1: fibulin-4 (natural protein)
chain: SASPQDSEEPDSYTECTDGYEWDPDSQHCRDVNECLTIPEACKGEMKCINHYGGYLCLPRSAAVINDLHGEGPPPPVPPAQHPNPCPPGYEPDDQDSCVDVDECAQALHDCRPSQDCHNLPGSYQCTCPDGYRKIGPECVDIDECRYRYCQHRCVNLPGSFRCQCEPGFQLGPNNRSCVDVNECDMGAPCEQRCFNSYGTFLCRCHQGYELHRDGFSCSDIDECSYSSYLCQYRCINEPGRFSCHCPQGYQLLATRLCQDIDECESGAHQCSEAQTCVNFHGGYRCVDTNRCVEPYIQVSENRCLCPASNPLCREQPSSIVHRYMTITSERSVPADVFQIQATSVYPGAYNAFQIRAGNSQGDFYIRQINNVSAMLVLARPVTGPREYVLDLEMVTMNSLMSYRASSVLRLTVFVGAYTF
B2: recombinant N-terminal half of fibrillin-1 (domain or fragment)
chain: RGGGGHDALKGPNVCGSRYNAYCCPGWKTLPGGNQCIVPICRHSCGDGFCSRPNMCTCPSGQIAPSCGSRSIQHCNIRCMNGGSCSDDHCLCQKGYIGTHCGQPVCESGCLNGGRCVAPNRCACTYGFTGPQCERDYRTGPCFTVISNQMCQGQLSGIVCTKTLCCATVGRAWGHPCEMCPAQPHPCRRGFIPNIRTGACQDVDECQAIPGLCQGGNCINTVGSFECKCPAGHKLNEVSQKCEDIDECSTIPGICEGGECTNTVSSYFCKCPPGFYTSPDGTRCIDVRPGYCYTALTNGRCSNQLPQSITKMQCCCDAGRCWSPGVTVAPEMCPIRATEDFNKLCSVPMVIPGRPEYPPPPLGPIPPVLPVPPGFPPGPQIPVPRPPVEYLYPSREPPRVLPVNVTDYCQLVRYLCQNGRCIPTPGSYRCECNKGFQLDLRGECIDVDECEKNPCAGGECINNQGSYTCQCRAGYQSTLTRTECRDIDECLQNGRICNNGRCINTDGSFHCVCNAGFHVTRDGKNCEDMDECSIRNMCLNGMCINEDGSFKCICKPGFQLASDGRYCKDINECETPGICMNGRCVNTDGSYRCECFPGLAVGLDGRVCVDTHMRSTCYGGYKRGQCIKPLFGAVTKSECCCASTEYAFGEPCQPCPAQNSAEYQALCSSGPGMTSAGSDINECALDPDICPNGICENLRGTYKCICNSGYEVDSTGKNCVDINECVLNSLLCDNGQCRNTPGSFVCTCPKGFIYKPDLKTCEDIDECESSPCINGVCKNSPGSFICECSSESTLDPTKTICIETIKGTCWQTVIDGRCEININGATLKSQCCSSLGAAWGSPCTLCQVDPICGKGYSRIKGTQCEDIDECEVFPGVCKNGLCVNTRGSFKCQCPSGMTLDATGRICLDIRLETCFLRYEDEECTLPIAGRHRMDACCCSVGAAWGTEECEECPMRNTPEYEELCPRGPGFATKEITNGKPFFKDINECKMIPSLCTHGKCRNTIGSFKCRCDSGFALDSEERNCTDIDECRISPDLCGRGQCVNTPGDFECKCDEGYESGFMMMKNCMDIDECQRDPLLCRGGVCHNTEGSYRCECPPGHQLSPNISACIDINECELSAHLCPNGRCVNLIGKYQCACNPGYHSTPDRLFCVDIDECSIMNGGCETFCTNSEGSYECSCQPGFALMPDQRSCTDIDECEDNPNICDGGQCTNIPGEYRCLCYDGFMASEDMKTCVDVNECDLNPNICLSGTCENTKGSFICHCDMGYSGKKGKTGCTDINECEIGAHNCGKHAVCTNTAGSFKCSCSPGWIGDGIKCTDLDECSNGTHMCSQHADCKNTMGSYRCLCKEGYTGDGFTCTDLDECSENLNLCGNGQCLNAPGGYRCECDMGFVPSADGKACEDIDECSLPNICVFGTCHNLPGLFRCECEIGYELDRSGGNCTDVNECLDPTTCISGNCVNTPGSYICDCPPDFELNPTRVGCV
B3: latent transforming growth factor beta binding protein-4, long isoform (natural protein)
chain: ASPSPSPSQVVEVPGVPSRPASVAVCRCCPGQTSRRSRCIRAFCRVRSCQPKKCAGPQRCLNPVPAVPSPSPSVRKRQVSLNWQPLTLQEARALLKRRRPRGPGGRGLLRRRPPQRAPAGKAPVLCPLICHNGGVCVKPDRCLCPPDFAGKFCQLHSSGARPPAPAVPGLTRSVYTMPLANHRDDEHGVASMVSVHVEHPQEASVVVHQVERVSGPWEEADAEAVARAEAAARAEAAAPYTVLAQSAPREDGYSDASGFGYCFRELRGGECASPLPGLRTQEVCCRGAGLAWGVHDCQLCSERLGNSERVSAPDGPCPTGFERVNGSCEDVDECATGGRCQHGECANTRGGYTCVCPDGFLLDSSRSSCISQHVISEAKGPCFRVLRDGGCSLPILRNITKQICCCSRVGKAWGRGCQLCPPFGSEGFREICPAGPGYHYSASDLRYNTRPLGQEPPRVSLSQPRTLPATSRPSAGFLPTHRLEPRPEPRPDPRPGPELPLPSIPAWTGPEIPESGPSSGMCQRNPQVCGPGRCISRPSGYTCACDSGFRLSPQGTRCIDVDECRRVPPPCAPGRCENSPGSFRCVCGPGFRAGPRAAECLDVDECHRVPPPCDLGRCENTPGSFLCVCPAGYQAAPHGASCQDVDECTQSPGLCGRGACKNLPGSFRCVCPAGFRGSACEEDVDECAQEPPPCGPGRCDNTAGSFHCACPAGFRSRGPGAPCQDVDECARSPPPCTYGRCENTEGSFQCVCPMGFQPNTAGSECEDVDECENHLACPGQECVNSPGSFQCRTCPSGHHLHRGRCTDVDECSSGAPPCGPHGHCTNTEGSFRCSCAPGYRAPSGRPGPCADVNECLEGDFCFPHGECLNTDGSFACTCAPGYRPGPRGASCLDVDECSEEDLCQSGICTNTDGSFECICPPGHRAGPDLASCLDVDECRERGPALCGSQRCENSPGSYRCVRDCDPGYHAGPEGTCDDVDECQEYGPEICGAQRCENTPGSYRCTPACDPGYQPTPGGGCQDVDECRNRSFCGAHAVCQNLPGSFQCLCDQGYEGARDGRHCVDVNECETLQGVCGAALCENVEGSFLCVCPNSPEEFDPMTGRCVPPRTSAGTFPGSQPQAPASPVLPARPPPPPLPRRPSTPRQGPVGSGRRECYFDTAAPDACDNILARNVTWQECCCTVGEGWGSGCRIQQCPGTETAEYQSLCPHGRGYLAPSGDLSLRRDVDECQLFRDQVCKSGVCVNTAPGYSCYCSNGYYYHTQRLECIDNDECADEEPACEGGRCVNTVGSYHCTCEPPLVLDGSQRRCVSNESQSLDDNLGVCWQEVGADLVCSHPRLDRQATYTECCCLYGEAWGMDCALCPAQDSDDFEALCNVLRPPAYSPPRPGGFGLPYEYGPDLGPPYQGLPYGPELYPPPALPYDPYPPPPGPFARREAPYGAPRFDMPDFEDDGGPYGESEAPAPPGPGTRWPYRSRDTRRSFPEPEEPPEGGSYAGSLAEPYEELEAEECGILDGCTNGRCVRVPEGFTCRCFDGYRLDMTRMACVDINECDEAEAASPLCVNARCLNTDGSFRCICRPGFAPTHQPHHCAPARPRA
B4: fibulin-5 (natural protein)
chain: QAQCTNGFDLDRQSGQCLDIDECRTIPEACRGDMMCVNQNGGYLCIPRTNPVYRGPYSNPYSTPYSGPYPAAAPPLSAPNYPTISRPLICRFGYQMDESNQCVDVDECATDSHQCNPTQICINTEGGYTCSCTDGYWLLEGQCLDIDECRYGYCQQLCANVPGSYSCTCNPGFTLNEDGRSCQDVNECATENPCVQTCVNTYGSFICRCDPGYELEEDGVHCSDMDECSFSEFLCQHECVNQPGTYFCSCPPGYILLDDNRSCQDINECEHRNHTCNLQQTCYNLQGGFKCIDPIRCEEPYLRISDNRCMCPAENPGCRDQPFTILYRDMDVVSGRSVPADIFQMQATTRYPGAYYIFQIKSGNEGREFYMRQTGPISATLVMTRPIKGPREIQLDLEMITVNTVINFRGSSVIRLRIYVSQYPF
B5: fibrillin-1 centre region fragment rF1M (domain or fragment)
chain: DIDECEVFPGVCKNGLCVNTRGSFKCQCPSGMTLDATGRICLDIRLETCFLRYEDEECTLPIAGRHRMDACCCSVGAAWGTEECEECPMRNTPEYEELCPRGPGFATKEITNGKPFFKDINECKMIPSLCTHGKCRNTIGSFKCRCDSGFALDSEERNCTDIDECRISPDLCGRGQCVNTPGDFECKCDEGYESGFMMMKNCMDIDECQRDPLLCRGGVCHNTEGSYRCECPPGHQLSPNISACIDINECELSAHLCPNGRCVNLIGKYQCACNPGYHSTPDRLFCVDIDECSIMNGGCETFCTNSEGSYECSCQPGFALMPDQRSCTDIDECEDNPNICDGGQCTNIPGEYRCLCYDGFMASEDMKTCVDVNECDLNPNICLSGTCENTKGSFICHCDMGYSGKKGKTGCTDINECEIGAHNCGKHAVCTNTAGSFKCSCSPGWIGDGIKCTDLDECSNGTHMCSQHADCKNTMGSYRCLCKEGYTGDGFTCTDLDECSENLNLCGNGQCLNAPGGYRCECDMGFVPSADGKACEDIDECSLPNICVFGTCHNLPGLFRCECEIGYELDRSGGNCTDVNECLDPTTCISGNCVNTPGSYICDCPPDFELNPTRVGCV
modifications: limits not printed (cited paper); approximate centre region, set at calcium-binding EGF domain boundaries from the domain before TB4 to the one before TB5; Ca2+ bound, HEK-type glycosylation and disulphides likely
B6: N-terminal half of LTBP4L (domain or fragment)
chain: ASPSPSPSQVVEVPGVPSRPASVAVCRCCPGQTSRRSRCIRAFCRVRSCQPKKCAGPQRCLNPVPAVPSPSPSVRKRQVSLNWQPLTLQEARALLKRRRPRGPGGRGLLRRRPPQRAPAGKAPVLCPLICHNGGVCVKPDRCLCPPDFAGKFCQLHSSGARPPAPAVPGLTRSVYTMPLANHRDDEHGVASMVSVHVEHPQEASVVVHQVERVSGPWEEADAEAVARAEAAARAEAAAPYTVLAQSAPREDGYSDASGFGYCFRELRGGECASPLPGLRTQEVCCRGAGLAWGVHDCQLCSERLGNSERVSAPDGPCPTGFERVNGSCEDVDECATGGRCQHGECANTRGGYTCVCPDGFLLDSSRSSCISQHVISEAKGPCFRVLRDGGCSLPILRNITKQICCCSRVGKAWGRGCQLCPPFGSEGFREICPAGPGYHYSASDLRYNTRPLGQEPPRVSLSQPRTLPATSRPSAGFLPTHRLEPRPEPRPDPRPGPELPLPSIPAWTGPEIPESGPSSGMCQRNPQVCGPGRCISRPSGYTCACDSGFRLSPQGTRCIDVDECRRVPPPCAPGRCENSPGSFRCVCGPGFRAGPRAAECLDVDECHRVPPPCDLGRCENTPGSFLCVCPAGYQAAPHGASCQDVDECTQSPGLCGRGACKNLPGSFRCVCPAGFRGSACEEDVDECAQEPPPCGPGRCDNTAGSFHCACPAGFRSRGPGAPCQ
B7: recombinant human tropoelastin (natural protein)
chain: GGVPGAIPGGVPGGVFYPGAGLGALGGGALGPGGKPLKPVPGGLAGAGLGAGLGAFPAVTFPGALVPGGVADAAAAYKAAKAGAGLGGVPGVGGLGVSAGAVVPQPGAGVKPGKVPGVGLPGVYPGGVLPGARFPGVGVLPGVPTGAGVKPKAPGVGGAFAGIPGVGPFGGPQPGVPLGYPIKAPKLPGGYGLPYTTGKLPYGYGPGGVAGAAGKAGYPTGTGVGPQAAAAAAAKAAAKFGAGAAGVLPGVGGAGVPGVPGAIPGIGGIAGVGTPAAAAAAAAAAKAAKYGAAAGLVPGGPGFGPGVVGVPGAGVPGVGVPGAGIPVVPGAGIPGAAVPGVVSPEAAAKAAAKAAKYGARPGVGVGGIPTYGVGAGGFPGFGVGVGGIPGVAGVPGVGGVPGVGGVPGVGISPEAQAAAAAKAAKYGAAGAGVLGGLVPGAPGAVPGVPGTGGVPGVGTPAAAAAKAAAKAAQFGLVPGVGVAPGVGVAPGVGVAPGVGLAPGVGVAPGVGVAPGVGVAPGIGPGGVAAAAKSAAKVAAKAQLRAAAGLGAGIPGLGVGVGVPGLGVGAGVPGLGVGAGVPGFGAGADEGVRRSLSPELREGDPSSSQHLPSTPSSPRVPGALAAAKAAKYGAAVPGVLGGLGALGGVGIPGGVVGAGPAAAAAAAKAAAKAAQFGLVGAAGLGGLGVGGLGVPGVGGLGGIPPAAAAKAAKYGAAGLGGVLGGAGQFPLGGVAARPGFGLSPIFPGGACLGKACGRKRK
B8: latent transforming growth factor beta binding protein-4, short isoform (natural protein)
chain: RLGERLRVRFTPVVCGLRCVHGPTGSRCTPTCAPRNATSVDSGAPGGAAPGGPGFRAFLCPLICHNGGVCVKPDRCLCPPDFAGKFCQLHSSGARPPAPAVPGLTRSVYTMPLANHRDDEHGVASMVSVHVEHPQEASVVVHQVERVSGPWEEADAEAVARAEAAARAEAAAPYTVLAQSAPREDGYSDASGFGYCFRELRGGECASPLPGLRTQEVCCRGAGLAWGVHDCQLCSERLGNSERVSAPDGPCPTGFERVNGSCEDVDECATGGRCQHGECANTRGGYTCVCPDGFLLDSSRSSCISQHVISEAKGPCFRVLRDGGCSLPILRNITKQICCCSRVGKAWGRGCQLCPPFGSEGFREICPAGPGYHYSASDLRYNTRPLGQEPPRVSLSQPRTLPATSRPSAGFLPTHRLEPRPEPRPDPRPGPELPLPSIPAWTGPEIPESGPSSGMCQRNPQVCGPGRCISRPSGYTCACDSGFRLSPQGTRCIDVDECRRVPPPCAPGRCENSPGSFRCVCGPGFRAGPRAAECLDVDECHRVPPPCDLGRCENTPGSFLCVCPAGYQAAPHGASCQDVDECTQSPGLCGRGACKNLPGSFRCVCPAGFRGSACEEDVDECAQEPPPCGPGRCDNTAGSFHCACPAGFRSRGPGAPCQDVDECARSPPPCTYGRCENTEGSFQCVCPMGFQPNTAGSECEDVDECENHLACPGQECVNSPGSFQCRTCPSGHHLHRGRCTDVDECSSGAPPCGPHGHCTNTEGSFRCSCAPGYRAPSGRPGPCADVNECLEGDFCFPHGECLNTDGSFACTCAPGYRPGPRGASCLDVDECSEEDLCQSGICTNTDGSFECICPPGHRAGPDLASCLDVDECRERGPALCGSQRCENSPGSYRCVRDCDPGYHAGPEGTCDDVDECQEYGPEICGAQRCENTPGSYRCTPACDPGYQPTPGGGCQDVDECRNRSFCGAHAVCQNLPGSFQCLCDQGYEGARDGRHCVDVNECETLQGVCGAALCENVEGSFLCVCPNSPEEFDPMTGRCVPPRTSAGTFPGSQPQAPASPVLPARPPPPPLPRRPSTPRQGPVGSGRRECYFDTAAPDACDNILARNVTWQECCCTVGEGWGSGCRIQQCPGTETAEYQSLCPHGRGYLAPSGDLSLRRDVDECQLFRDQVCKSGVCVNTAPGYSCYCSNGYYYHTQRLECIDNDECADEEPACEGGRCVNTVGSYHCTCEPPLVLDGSQRRCVSNESQSLDDNLGVCWQEVGADLVCSHPRLDRQATYTECCCLYGEAWGMDCALCPAQDSDDFEALCNVLRPPAYSPPRPGGFGLPYEYGPDLGPPYQGLPYGPELYPPPALPYDPYPPPPGPFARREAPYGAPRFDMPDFEDDGGPYGESEAPAPPGPGTRWPYRSRDTRRSFPEPEEPPEGGSYAGSLAEPYEELEAEECGILDGCTNGRCVRVPEGFTCRCFDGYRLDMTRMACVDINECDEAEAASPLCVNARCLNTDGSFRCICRPGFAPTHQPHHCAPARPRA

Tests used:
MFAP4_(C34S) = MFAP4_(C34S) (human, UniProt P55083 22-255, C34S); assay: SPR; +Ca2+
[1] = biological target: T1, Microfibril-associated glycoprotein 4; assay: SPR; -Ca2+
[2] = biological target: T1, Microfibril-associated glycoprotein 4; assay: SPR; Ca2+

| Kd (MFAP4_(C34S)) | Kd [1] | Kd [2] | Binder |
| --- | --- | --- | --- |
| 90 nM |  |  | B1 |
| 1.5 nM |  |  | B2 |
| 15 nM | 20 nM |  | B3 |
|  | 3400 nM |  | B4 |
| 1 nM |  |  | B5 |
|  |  | 19 nM | B6 |
| 38 nM |  |  | B7 |
| 19 nM | 22 nM |  | B8 |
